In the experiment the target is human ALK receptor (human). The experiment in a line: apparent KD (KD^app), method not stated.
Sequence of human ALK receptor (human) (chain, as listed by the source): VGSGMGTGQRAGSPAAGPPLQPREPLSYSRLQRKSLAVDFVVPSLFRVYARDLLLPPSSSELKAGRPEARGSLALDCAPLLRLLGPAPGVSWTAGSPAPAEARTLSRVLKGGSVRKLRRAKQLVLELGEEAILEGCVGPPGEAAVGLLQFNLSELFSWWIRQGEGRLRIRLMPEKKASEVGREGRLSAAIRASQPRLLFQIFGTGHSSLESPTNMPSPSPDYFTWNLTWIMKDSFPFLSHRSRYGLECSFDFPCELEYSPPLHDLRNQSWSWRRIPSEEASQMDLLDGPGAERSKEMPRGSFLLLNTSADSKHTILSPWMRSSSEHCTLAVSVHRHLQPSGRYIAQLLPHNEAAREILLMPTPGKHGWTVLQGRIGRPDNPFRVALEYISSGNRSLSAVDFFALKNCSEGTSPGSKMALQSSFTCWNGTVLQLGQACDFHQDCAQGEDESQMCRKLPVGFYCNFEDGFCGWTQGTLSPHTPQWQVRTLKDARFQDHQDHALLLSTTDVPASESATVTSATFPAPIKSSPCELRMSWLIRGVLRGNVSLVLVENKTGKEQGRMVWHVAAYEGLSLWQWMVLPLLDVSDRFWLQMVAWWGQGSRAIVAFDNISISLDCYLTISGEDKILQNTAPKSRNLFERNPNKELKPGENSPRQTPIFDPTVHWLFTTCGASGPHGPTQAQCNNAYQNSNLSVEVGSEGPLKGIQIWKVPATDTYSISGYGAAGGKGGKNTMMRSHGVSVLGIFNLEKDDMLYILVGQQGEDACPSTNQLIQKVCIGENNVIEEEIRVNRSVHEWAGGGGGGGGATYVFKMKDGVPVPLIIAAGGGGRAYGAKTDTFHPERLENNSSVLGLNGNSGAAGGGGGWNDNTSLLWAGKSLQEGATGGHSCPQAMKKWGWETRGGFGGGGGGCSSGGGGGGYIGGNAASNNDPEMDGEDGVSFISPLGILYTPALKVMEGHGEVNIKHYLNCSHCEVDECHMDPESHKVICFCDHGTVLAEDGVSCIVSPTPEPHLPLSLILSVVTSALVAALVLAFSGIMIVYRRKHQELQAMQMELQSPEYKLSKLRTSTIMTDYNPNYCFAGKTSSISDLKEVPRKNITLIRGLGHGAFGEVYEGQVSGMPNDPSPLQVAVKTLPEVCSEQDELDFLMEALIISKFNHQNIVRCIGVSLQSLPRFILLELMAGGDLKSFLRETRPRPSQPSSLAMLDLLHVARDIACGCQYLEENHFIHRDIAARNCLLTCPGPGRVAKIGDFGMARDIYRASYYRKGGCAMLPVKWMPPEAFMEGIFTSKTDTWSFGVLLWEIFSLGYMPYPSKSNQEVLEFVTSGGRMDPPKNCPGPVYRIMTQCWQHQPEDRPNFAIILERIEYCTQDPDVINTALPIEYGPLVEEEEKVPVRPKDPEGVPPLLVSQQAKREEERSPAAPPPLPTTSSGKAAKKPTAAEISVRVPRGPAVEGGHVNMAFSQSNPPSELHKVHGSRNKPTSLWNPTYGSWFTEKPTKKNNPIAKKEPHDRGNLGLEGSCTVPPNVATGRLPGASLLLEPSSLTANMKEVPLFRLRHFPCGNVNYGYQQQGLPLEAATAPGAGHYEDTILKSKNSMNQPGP

B1: ALK Antibody #4 (antibody, V domains shown)
VH: QVQLQQSGAELVKPGASVKISCKASGYAFSSYWVNWVKQRPGKGLEWIGQIYPGDGDTNYNGKFKGKATLTADKSSSTAYMQLSSLTSEDSAVYFCARSRGYFYGSTYDSWGQGTTLTVSS
VL: not shown
Regarding B1, the Kd was found to be 0.5 nM.

B2: ALK Antibody #6 (antibody, V domains shown)
VH: DVKLVESGEGLVKPGGSLKLSCAASGFTFSSYAMSWVRQTPEKRLEWVTYISSGGDYIYYADTVKGRFTISRDNARNTLYLQMSSLKSEDTAMYYCTRERIWLRRFFDVWGTGTTVTVSS
VL: DIVMTQSQKFMSTSVGDRVSITCKASQNVGTAVAWYQLKPGQSPKLLIYSASNRFTGVPDRFTGSGSGTDFTLTISNMQSEDLADYFCQQYSSYPLTFGSGTKLEIKR
Turning to B2, the Kd was 0.4 nM.

B3: ALK Antibody #3 (antibody, V domains shown)
VH: QVQLQQSGAELAKPGASVKLSCKASGYTFTNYWMHWVKQRPGQGLEWIGYINPSSGYTKYNQKFKDKATLTADKSSSTAYMQLSSLTYEDSAVYYCARDYYGSSSWFAYWGQGTLVTVSA
VL: DIVMTQSQRFMSTSVGDRVSVTCKASQNVGTNVAWYQQKPGQSPKALIYSASYRYSGVPDRFTGSGSGTDFTLTVSNVQSEDLAEYFCQQYNSYPYMYTFGGGTKLEIKR
B3: the Kd was 0.5 nM.

B4: ALK Antibody #7 (antibody, V domains shown)
VH: QVQLQQSGAELAKPGASVKLSCKASGYTFTSYWMHWVKQRPGQGLEWIGYINPSSGYTKYNQKFKDKATLTADKSSSTAYMQLSSLTFEDSAVYYCARDYYGSSSWFAYWGQGTLVTVSA
VL: DIVMTQSQKFMSTSVGDRVSVTCKASQNVGTNVAWYQQKPGHSPKALIYSASYRYSGVPDRFTGSGSGTDFTLTISNVQSEDLAEYFCQRYNSYPYMFTFGGGTKLEIKR
In the case of B4, the Kd was determined as 0.5 nM.

B5: ALK Antibody #5 (antibody, V domains shown)
VH: QVQLQQSGAELAKPGASVKLSCKASGYTFTSYWMHWVKQRPGQGLEWIGYIKPSSGYTKYNQKFKDKATLTADKSSSTAYMQLSSLTYEDSAVYYCARDYYGSSSWFAYWGQGTLVTVSA
VL: DIVMTQSQRFMSTSVGDRVSVTCKASQNVGTNVAWYQQKPGQSPKALIYSASYRYSGVPDRFTGSGSGTDFTLTISNVQSEDLAEYFCQQYNSYPYMYTFGGGTKLEIKR
For B5, the Kd turned out to be 0.5 nM.

B6: ALK Antibody #1 (antibody, V domains shown)
VH: QVQLQQSGAELVKPGASVKISCKASGYAFSSYWMNWVKQRPGKGLEWIGQIYPGDGDTNYNGKFKGKATLTADKSSSTAYMQLSSLTSEDSAVYFCASYYYGSKAYWGQGTLVTVSA
VL: DIQMTQSPASLAASVGETVTITCRASENIYYSLAWYQQKQGKSPQLLIYNANSLEDGVPSRFSGSGSGTQYSMKINSMQPEDTATYFCKQAYDVPFTFGSGTKLEIKR
With B6, the Kd was found to be 0.35 nM.
